Laboratory results published in paper PMC4863741 (Genes & Development, 2016).
Blank lines part the entries; values can stand above or below the binder they belong to.

Legend:
[1] = target: T1, GST-His-Sfmbt-SAM_(1137-1220) (Drosophila, UniProt Q9VK33 1137-1220); assay: pull-down
T1 sequence (looked up): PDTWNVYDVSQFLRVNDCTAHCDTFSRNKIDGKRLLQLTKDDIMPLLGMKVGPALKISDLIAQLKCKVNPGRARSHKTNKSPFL

[2] = target: T2, Sfmbt-SAM_(1137-1220) (Drosophila, UniProt Q9VK33 1137-1220); assay: SEC
T2 sequence (looked up): T1 sequence (looked up)

binding result [1]: binds
B1: His-Scm-SAM_(803-877)^L855E/L859E (domain or fragment, Drosophila, UniProt Q9VHA0 803-877, looked up)
chain: PIDWTIEEVIQYIESNDNSLAVHGDLFRKHEIDGKALLLLNSEMMMKYMGLKEGPAEKICNLVNKVNGRRNNLAL

binding result [2]: binds
B2: Scm-SAM_(803-877)^L855E/L859E (coexpressed with Sfmbt-SAM) (domain or fragment, Drosophila, UniProt Q9VHA0 803-877, looked up)
chain: B1 chain
